The text below walks through data of PMC7367176, “Grønning Alexander Gulliver Bjørnholt Department of Biochemistry and Molecular Biology, University of Southern Denmark, 5230 Odense M, Denmark”.

In data set [1] the target is T1, SRSF1 (UniProt Q07955 1-248). Description: SPR imaging; SPRi (IBIS MX-96): 10 mM HEPES/KOH pH 7.9, 150 mM KCl, 10 mM MgCl2, 0.075% Tween-80; 6.25-400 nM protein over immobilized biotinylated RNA; 20 mg/ml BSA block. The settings on record: protein: recombinant; label: 3' biotin.
In data set [2] the target is T2, hnRNP A1 (UniProt P09651 1-372). Description: SPR imaging; 1:2 biphasic fit, primary Kd; fitted maximum higher than SMN1 (1260 vs 885); SPRi (IBIS MX-96): 10 mM HEPES/KOH pH 7.9, 150 mM KCl, 10 mM MgCl2, 0.075% Tween-80; 6.25-400 nM protein over immobilized biotinylated RNA; 20 mg/ml BSA block. As to conditions: protein: commercial; label: 3' biotin.
The target in data set [3] is T1, SRSF1. Description: SPR imaging; Kd NA, Rmax 0, maximum 0; SPRi (IBIS MX-96): 10 mM HEPES/KOH pH 7.9, 150 mM KCl, 10 mM MgCl2, 0.075% Tween-80; 6.25-400 nM protein over immobilized biotinylated RNA; 20 mg/ml BSA block. As to conditions: protein: recombinant; label: 3' biotin.
The target of data set [4] is T2, hnRNP A1. Description: SPR imaging; 1:2 biphasic fit, primary Kd; low Rmax 58.75; SPRi (IBIS MX-96): 10 mM HEPES/KOH pH 7.9, 150 mM KCl, 10 mM MgCl2, 0.075% Tween-80; 6.25-400 nM protein over immobilized biotinylated RNA; 20 mg/ml BSA block. The settings on record: protein: commercial; label: 3' biotin.
The target of data set [5] is T2, hnRNP A1. Description: SPR imaging; 1:2 biphasic fit, primary Kd; fitted maximum higher than WT (60.5 vs 49.6); SPRi (IBIS MX-96): 10 mM HEPES/KOH pH 7.9, 150 mM KCl, 10 mM MgCl2, 0.075% Tween-80; 6.25-400 nM protein over immobilized biotinylated RNA; 20 mg/ml BSA block. As to conditions: protein: commercial; label: 3' biotin.
Data set [6] concerns the target T2, hnRNP A1. Description: SPR imaging; 1:2 biphasic fit, primary Kd; text: increased binding vs WT (maximum 718 vs 131); SPRi (IBIS MX-96): 10 mM HEPES/KOH pH 7.9, 150 mM KCl, 10 mM MgCl2, 0.075% Tween-80; 6.25-400 nM protein over immobilized biotinylated RNA; 20 mg/ml BSA block. The settings on record: protein: commercial; label: 3' biotin.
For data set [7], the target named is T2, hnRNP A1. Description: SPR imaging; 1:2 biphasic fit, primary Kd; SPRi (IBIS MX-96): 10 mM HEPES/KOH pH 7.9, 150 mM KCl, 10 mM MgCl2, 0.075% Tween-80; 6.25-400 nM protein over immobilized biotinylated RNA; 20 mg/ml BSA block. As to conditions: protein: commercial; label: 3' biotin.
The target in data set [8] is T2, hnRNP A1. Description: SPR imaging; 1:2 biphasic fit, primary Kd; low Rmax 68.35; SPRi (IBIS MX-96): 10 mM HEPES/KOH pH 7.9, 150 mM KCl, 10 mM MgCl2, 0.075% Tween-80; 6.25-400 nM protein over immobilized biotinylated RNA; 20 mg/ml BSA block. As to conditions: protein: commercial; label: 3' biotin.
A further data set addresses TDP-43 (UniProt Q13148 1-414). Description: SPR imaging; pronounced increase vs wt; SPRi (IBIS MX-96): 10 mM HEPES/KOH pH 7.9, 150 mM KCl, 10 mM MgCl2, 0.075% Tween-80; 6.25-400 nM protein over immobilized biotinylated RNA; 20 mg/ml BSA block. As to conditions: protein: commercial; label: 3' biotin.

T1 sequence (Q07955 whole entry): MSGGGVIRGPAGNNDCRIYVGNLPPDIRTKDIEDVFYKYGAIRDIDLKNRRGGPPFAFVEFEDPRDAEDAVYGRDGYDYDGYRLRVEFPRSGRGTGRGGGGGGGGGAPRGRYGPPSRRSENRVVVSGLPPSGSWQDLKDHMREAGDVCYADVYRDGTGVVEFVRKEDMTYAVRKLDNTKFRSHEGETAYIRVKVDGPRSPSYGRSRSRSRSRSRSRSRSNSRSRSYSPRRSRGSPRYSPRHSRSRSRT
T2 sequence (P09651 whole entry): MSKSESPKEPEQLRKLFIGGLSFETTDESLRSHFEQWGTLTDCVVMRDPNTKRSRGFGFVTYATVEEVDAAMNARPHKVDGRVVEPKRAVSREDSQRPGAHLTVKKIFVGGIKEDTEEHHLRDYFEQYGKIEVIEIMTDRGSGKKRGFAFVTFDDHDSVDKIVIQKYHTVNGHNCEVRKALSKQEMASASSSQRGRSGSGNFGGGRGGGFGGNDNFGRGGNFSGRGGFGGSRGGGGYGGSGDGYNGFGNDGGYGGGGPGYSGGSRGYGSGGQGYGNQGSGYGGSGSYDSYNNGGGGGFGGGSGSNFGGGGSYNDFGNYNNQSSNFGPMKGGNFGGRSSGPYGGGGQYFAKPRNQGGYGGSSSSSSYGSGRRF
Sequence of TDP-43 (Q13148 whole entry): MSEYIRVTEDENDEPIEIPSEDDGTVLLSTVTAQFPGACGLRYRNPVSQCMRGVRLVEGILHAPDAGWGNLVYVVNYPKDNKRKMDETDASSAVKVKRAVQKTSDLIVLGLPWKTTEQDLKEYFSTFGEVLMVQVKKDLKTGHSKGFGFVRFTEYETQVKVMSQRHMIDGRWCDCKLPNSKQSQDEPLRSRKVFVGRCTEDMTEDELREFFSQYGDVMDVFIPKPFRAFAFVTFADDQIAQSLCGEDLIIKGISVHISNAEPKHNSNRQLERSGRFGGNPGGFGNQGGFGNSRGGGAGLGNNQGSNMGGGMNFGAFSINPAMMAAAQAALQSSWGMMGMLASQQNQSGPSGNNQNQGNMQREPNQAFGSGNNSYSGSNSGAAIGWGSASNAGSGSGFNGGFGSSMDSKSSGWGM

What is called Kd is the free concentration of one partner at which half of the binding sites on the other are occupied at equilibrium, for simple one-to-one binding. Turning to AGGGUUUUAGACAAA (ssRNA) [SMN2E7T], the Kd turned out to be 249000 nM with SRSF1 [1] and 1040 nM with hnRNP A1 [2].
Take CAUUCUUCGACUAGC (ssRNA) [MLH1EX17 WT]: the binding result with SRSF1 [3] is on record as “no binding”. For the same molecule, the affinity with hnRNP A1 [4], expressed as Kd, was 32 nM.
Regarding UGACCUCAAAACAGC (ssRNA) [ATMEX44 MUT], the figures for the equilibrium dissociation constant (Kd) in the data set with SRSF1 [1] and with hnRNP A1 [5] were 10500 nM and 211000 nM, respectively.
As for GGGAGAUAGAAUCAA (ssRNA) [ATP7AEX20 MUT], the Kd with SRSF1 [1] is 5090 nM; in the data set with hnRNP A1 [6] it was 989 nM.
For the molecule AUUUUUGUAAGAGUG (ssRNA) [NF1EX30 MUT], the Kd worked out at 1080 nM in the data set with hnRNP A1 [7] and 248000 nM with SRSF1 [1].
The matching figures for UCCCAGUCAGAGGCG (ssRNA) [PTENEX6 WT]: 1160 nM and 5800 nM.
In the same order, the values of GGGAGAUGGAAUCAA (ssRNA) [ATP7AEX20 WT] are 886 nM and 913 nM.
On to AUUUUUGGAAGAGUG (ssRNA) [NF1EX30 WT], for which the Kd amounted to 632 nM in the data set with hnRNP A1 [7] and 168 nM with SRSF1 [1].
For the molecule UCCCAGUUAGAGGCG (ssRNA) [PTENEX6 MUT], the Kd with hnRNP A1 [7] is 1450 nM; in the data set with SRSF1 [1] it was 161000 nM.
Regarding CAUUCUUUGACUAGC (ssRNA) [MLH1EX17 MUT], the binding result with SRSF1 [3] is given as “no binding”. The same molecule showed a Kd with hnRNP A1 [8] of 118 nM.
For the molecule UGAUGUGUGUGAGUGUGUGUAAC (ssRNA) [ACADM exon 6 5'ss +7A>G 23 nt], the binding result in the data set with TDP-43 was “binds”.
Regarding AGGGUUUCAGACAAA (ssRNA) [SMN1E7C], the figures for the Kd with hnRNP A1 [7] and with SRSF1 [1] were 733 nM and 302 nM, respectively.
The matching figures for UGACCUCGAAACAGC (ssRNA) [ATMEX44 WT]: 3890 nM and 60900 nM.
